# Test results from patent US7794711B2, “Agent for treating chondroma and chondrosarcoma” (Chugai Seiyaku Kabushiki Kaisha, priority 2002, dated 2010).
# Tests used:
# [1] = tested on: Human chondrosarcoma cell HTB-94; assay: Viability of cells (Premix WST-1 Cell Proliferation Assay System); format: cell-based; settings: 20 μM, 2 hours before the addition of anti-PTHrP MoAb (FIG. 2)
# Procedure: Human chondrosarcoma cell HTB-94 (ATCC) was suspended in Dulbecco's Modified Eagle's Medium (DMEM) containing 10% FBS, L-glutamine, penicillin-streptomycin (all are available from GIBCO-BRL), and was cultured and proliferated at 37° C. under 5% CO2 wet condition.
# That is, reduction ratio of tetrazolium salt (WST-1) by viable cells was determined from the increase in OD450, and it was considered as the index of the number of viable cells.
# HTB-94 cells [2] = assay: Western blotting of HTB-94 cell lysates; format: cell-based, human
# Procedure: In the experiment with regard to the following collagen type-X, the cells were treated by anti-PTHrP MoAb for further five days (for total seven days). All the cell lysates (50 μg as protein) of the above-mentioned cells were separated by SDS-PAGE using 12% gel and blotted on a nitrocellulose film (Bio-Rad Laboratories). The blocked film was incubated together with an anti-procaspase-3 antibody (Wako Pure Chemical) diluted to 1/100, an anti-PARP antibody, an anti-Bcl-2 antibody and an anti-Bax antibody (both from Santa Cruz Biotechnology), an anti-collagen type X antibody (Calbiochem-Novabiochem Corporation) and a peroxidase conjugated secondary antibody (Amersham) diluted to 1/1000.
# Here, PARP (poly(ADP-ribose) polymerase) is an enzyme important for the survival in a cell, and caspase-3 causes cleavage of this PARP.
# Detection was performed using ECL Western blotting detection system (Amersham). Each blot was further re-detected by ECL using anti-o-actin antibody (Santa Cruz Biotechnology) and the peroxidase conjugated secondary antibody.
# HTB-94 cells [3] = assay: Immunocytochemistry using anti-collagen type X antibody; format: cell-based, human; settings: particularly at high concentration, seven days
# Procedure: Immunocytochemistry was performed by streptavidin-peroxidase method using histofine SAB-PO kit ([…]). […] Subsequently, the cells were transferred to 3% H2O2 methanol to block endogenous peroxidase activity, washed with PBS (pH 7.2), and then blocked with PBS containing normal 10% serum (secondary antibody) of the congeneric origin in order to make the background minimum and incubated with anti-collagen type X antibody (primary antibody) at room temperature for 2 hours. Afterwards the cells were washed with PBS, incubated with the secondary antibody at room temperature in a wet chamber for 20 minutes, and incubated with peroxidase conjugated streptavidin ([…]) for 20 minutes under the same conditions. Finally, coloring reaction was performed with 3,3-diaminobenzidine tetrahydrochloride (DAB) reagent (Dojindo). The cells were counterstained with hematoxylin and microscopically observed at 200-fold and 400-fold magnification.
# HTB-94 cells [4] = assay: TUNEL staining; format: cell-based, human; settings: two days
# Procedure: TUNEL staining was performed using Apoptag Peroxidase Kit (Intergen Company). […] Subsequently, the cells were incubated with a TdT reaction mixture (TdT solution+[…] and dATP) at 37° C. for 60 minutes, and further incubated with peroxidase conjugated anti-dioxygenin antibody at room temperature for 30 minutes. The cells were stained with DAB and then counterstained with Mayer's hematoxylin and microscopically observed at 200-fold, 400-fold and 600-fold magnification.
# HTB-94 cells [5] = assay: RT-PCR; format: cell-based, human; settings: 100 μg/ml, two days, vs control
# Procedure: PCR of cDNA was performed using Ready-to-Go PCR beads (Pharmacia) and primers for human Bcl-2, Bax, Ihh, ColX (α1) and β-actin amplification (12.5 pmol(s) each).
# Amplification was performed using Perkin-Elmer/Cetus DNA Thermal Cycler (TAKARA SHUZO) on the conditions of 30 cycles each of 94° C., 0.5 min; 55° C., 0.5 min; 72° C., 0.5 min and last extension reaction at 72° C. for 7 minutes.
# Electrophoresis of the obtained PCR product (10 μL) was carried out on a 4% agarose gel, and stained and observed with ethidium bromide.
# HTB-94 cells [6] = assay: DNA fragmentation assay; format: cell-based, human; settings: two days
# Procedure: That is, the cells were dissolved in a dissolution buffer, DNA was isolated, extracted with an organic solvent and ethanol precipitation was carried out. The precipitated DNA was centrifuged (12,000 g, 10 min) and then washed with 80% ethanol, and dissolved in 30 μl of TE buffer. Each sample (10 μl) was subjected to electrophoresis on a 1.2% agarose gel, and stained with ethidium bromide.
# PTHrP (1-34) [7] = target: T1, PTHrP (1-34) (Homo sapiens, UniProt P12272); assay: Screening of hybridomas by solid phase RIA of culture supernatant; format: binding; design: purchased Peninsula; settings: hybridoma culture supernatant
# Procedure: Hybridomas #23-57-154 and #23-57-137-1 which produce monoclonal antibody to human PTHrP (1-34) were produced as follows (Sato, K. et al., J. Bone Miner. Res. 8, 849-860, 1993). The amino acid sequence of human PTHrP (1-34) is shown in the SEQ ID No. 75.
# Screening of hybridomas was performed by measuring and selecting the existence of a PTHrP recognizing antibody by applying solid phase RIA method to the culture supernatant of the wells where growth was recognized in HAT culture medium. Hybridomas were collected from the wells where binding ability with an antibody was recognized, suspended to the culture medium prepared by adding OPI-supplement (Sigma) to the RPMI-1640 culture medium containing FCS 15%, and the hybridomas was simplified by the limiting dilution method.
# PTHrP (1-34) [8] = target: T1, PTHrP (1-34); assay: ELISA measurement of antigen binding ability; design: coated with 100 μl of human PTHrP(1-34) (Peptide Research Institute); purchased Peptide Research Institute; settings: expressed in COS-7 cells; H chain humanized version a
# Procedure: The ELISA plate for antigen binding measurement was prepared as follows. Each well of a 96 well plate for ELISA was coated with 100 μl of human PTHrP(1-34) (Peptide Research Institute) adjusted to 1 μg/ml concentration by the coating buffer. […] After the plate was incubated at room temperature and washed with PBS-Tween20, 100 μl of alkaline phosphatase (TAGO) conjugated goat anti-man IgG antibody was added. After the plate was incubated at room temperature and washed with PBS-Tween20, 1 mg/ml of a substrate solution (Sigma104, p-nitrophenylphosphate, SIGMA) was added, and, next, 405 nm absorption was measured with a micro plate reader (Bio Rad).
# The ELISA plate for antigen binding measurement was prepared as follows. Each well of a 96 well plate for ELISA was coated with 100 μl of human PTHrP(1-34) adjusted to 1 μg/ml concentration by the coating buffer. After blocking with 200 μl of the dilution buffer, the culture supernatant of the COS-7 cells in which hybrid antibody or humanized antibody was expressed or the purified hybrid antibody or the humanized antibody was stepwise diluted and added to each well. After the plate was incubated at room temperature and washed with PBS-Tween20, 100 μl of alkaline phosphatase (TAGO) conjugated goat anti-man IgG antibody was added. After the plate was incubated at room temperature and washed with PBS-Tween20, 1 mg/ml of a substrate solution (Sigma104, p-nitrophenylphosphate, SIGMA) was added, and 405 nm absorption was then measured on a micro plate reader (Bio Rad).
# [9] = 0, 10, 30, 50, 100, and 200 μg/ml, two days
molecule,measurement,setting,value
DEVD-CHO,effect of caspase-3 inhibitor on the effect of anti-PTHrP MoAb on cell viability,[1],inhibited the effect of this anti-PTHrP MoAb
"anti-PTHrP MoAb: mouse monoclonal antibody to human PTHrP (1-34) prepared from hybridoma #23-57-137-1 (FERM BP-5631) (antibody, V domains shown) VH: EVQLVESGGDLVKPGGSLKLSCAASGFTFSSYGMSWIRQTPDKRLEWVATISSGGSYTYYPDSVKGRFTISRDNAKNTLYLQMSSLKSEDTAMFYCARQTTMTYFAYWGQGTLVTVSA VL: QLVLTQSSSASFSLGASAKLTCTLSSQHSTYTIEWYQQQPLKPPKYVMDLKQDGSHSTGDGIPDRFSGSSSGADRYLSISNIQPEDEAMYICGVGDTIKEQFVYVFGGGTKVTVLGQP",85 kDa fragment of PARP,HTB-94 cells [2]; [9],increased depending on the concentration
same,Bax (protein),HTB-94 cells [2]; [9],increased as the concentration of anti-PTHrP MoAb increased
same,Bcl-2 (protein),HTB-94 cells [2]; [9],decreased as the concentration of anti-PTHrP MoAb increased
same,procaspase-3 (35 kDa),"HTB-94 cells [2]; 100 μg/ml, two days",decreased
same,procaspase-3 (35 kDa),"HTB-94 cells [2]; 200 μg/ml, two days",decreased
same,anti-PTHrP MoAb concentration at maximum collagen type X,HTB-94 cells [2]; total seven days,50 µg/mL
same,collagen type X (protein),"HTB-94 cells [2]; treated vs untreated cells, total seven days",more collagen type X in the cells treated with Anti-PTHrP MoAb than in untreated cells
same,cell morphology (differentiation),HTB-94 cells [3],a number of cells which roundly expanded were observed
same,frequency of appearance of cells in apoptosis (stained brown),"HTB-94 cells [4]; 0, 10, 100, or 200 μg/ml",increased depending on the concentration
same,morphological changes characteristic of apoptosis,HTB-94 cells [4]; after treatment,contraction and round outline were also recognized
same,amount of expression of Bax (mRNA),HTB-94 cells [5],increased
same,amount of expression of Bcl-2 (mRNA),HTB-94 cells [5],decreased
same,fragmentation of DNA in nucleosome specific to apoptosis,HTB-94 cells [6]; 10 μg/ml,observed
same,fragmentation of DNA in nucleosome specific to apoptosis,HTB-94 cells [6]; 200 μg/ml,observed
same,binding ability with PTHrP (1-34),PTHrP (1-34) [7],strong binding ability
"m/hMBC1Laλ: hybrid antibody: L chain mouse FR1, 2/human FR3, 4 (version a); humanized H chain (antibody, V domains shown) VH: QVQLVESGGGVVQPGRSLRLSCAASGFTFSSYGMSWVRQAPGKGLEWVATISSGGSYTYYPDSVKGRFTISRDNSKNTLYLQMNSLRAEDTAVYYCARQTTMTYFAYWGQGTLVTVSS VL: QLVLTQSSSASFSLGASAKLTCTLSSQHSTYTIEWYQQQPLKPPKYVMDLKQDGSHSTGDGIPDRFSGSSSGAERYLTISSLQSEDEADYYCGVGDTIKEQFVYVFGGGTKLTVL",PTHrP binding ability compared with chimeric antibody,PTHrP (1-34) [8],equivalent to chimera #23-57-137-1 antibody
"hmmMBC1L(λ): hybrid antibody: L chain human FR1/mouse FR2, 3, 4; humanized H chain (antibody, V domains shown) VH: QVQLVESGGGVVQPGRSLRLSCAASGFTFSSYGMSWVRQAPGKGLEWVATISSGGSYTYYPDSVKGRFTISRDNSKNTLYLQMNSLRAEDTAVYYCARQTTMTYFAYWGQGTLVTVSS VL: QLVLTQSPSASASLGASVKLTCTLSSQHSTYTIEWYQQQPLKPPKYVMDLKQDGSHSTGDGIPDRFSGSSSGADRYLSISNIQPEDEAMYICGVGDTIKEQFVYVFGGGTKVTVL",PTHrP binding ability compared with chimeric antibody,PTHrP (1-34) [8],equivalent to chimera #23-57-137-1 antibody
"m/hMBC1Ldλ: hybrid antibody: L chain mouse FR1, 2/human FR3, 4 (version d, 87 isoleucine); humanized H chain (antibody, V domains shown) VH: QVQLVESGGGVVQPGRSLRLSCAASGFTFSSYGMSWVRQAPGKGLEWVATISSGGSYTYYPDSVKGRFTISRDNSKNTLYLQMNSLRAEDTAVYYCARQTTMTYFAYWGQGTLVTVSS VL: QLVLTQSSSASFSLGASAKLTCTLSSQHSTYTIEWYQQQPLKPPKYVMDLKQDGSHSTGDGIPDRFSGSSSGAERYLTISSLQSEDEADYICGVGDTIKEQFVYVFGGGTKLTVL",PTHrP binding ability compared with chimeric antibody,PTHrP (1-34) [8],equivalent to chimera #23-57-137-1 antibody
